Reference: the array DNA melting data of Ke et al.

Test: melting temperature; UV melt of duplexes
Conditions: strand 2 µM

Work on “TTCCAAAAGGAGTTATGAGTTGCGA+TCGCAACTCATAACTCCTTTTGGAA (((((((((((((((((((((((((+)))))))))))))))))))))))))” yielded a Tm (sodium 0.07 M) of 59.1 °C, a Tm (sodium 0.12 M) of 63 °C and a Tm (sodium 0.22 M) of 67.2 °C. For the same substance, the Tm (sodium 0.62 M) was 71.6 °C and the Tm (sodium 1.02 M) was 73.8 °C.
